Data on two substances can be found in patent US20190271705A1.

pKd: −log10 of the molar value.

Among the targets are EGFR-pY978 peptide; ShcA-pY239 peptide; MidT-pY324 peptide.
Holding throughout (assay): fluorescence polarization in solution
For assay [1], the target named is fluorescein-GGpYGG peptide (SEQ ID NO: 23).

Regarding “T8V/C10A/K15L variant Src SH2 domain (designed binder)”, the pKd (as a rule, −log10 of the Kd, conventionally taken in molar units) was 6.29 in assay [1], 9.00 in the assay with EGFR-pY978 peptide, 9.00 in the assay with ShcA-pY239 peptide and 9.00 in the assay with MidT-pY324 peptide.
Regarding “wild-type Fyn SH2 domain (hexa-histidine-tagged construct, SEQ ID NO:4)”, the pKd in assay [1] was 4.17.
